How the values were obtained:
Assay in all cases: Kinase Profiling Assay
Assay type in all cases: biochemical
Conditions in all cases: 100 μM
DMPK(h) = molecular target: T1, DMPK(h) (Homo sapiens, UniProt Q09013)
T1 sequence (Q09013 1-629): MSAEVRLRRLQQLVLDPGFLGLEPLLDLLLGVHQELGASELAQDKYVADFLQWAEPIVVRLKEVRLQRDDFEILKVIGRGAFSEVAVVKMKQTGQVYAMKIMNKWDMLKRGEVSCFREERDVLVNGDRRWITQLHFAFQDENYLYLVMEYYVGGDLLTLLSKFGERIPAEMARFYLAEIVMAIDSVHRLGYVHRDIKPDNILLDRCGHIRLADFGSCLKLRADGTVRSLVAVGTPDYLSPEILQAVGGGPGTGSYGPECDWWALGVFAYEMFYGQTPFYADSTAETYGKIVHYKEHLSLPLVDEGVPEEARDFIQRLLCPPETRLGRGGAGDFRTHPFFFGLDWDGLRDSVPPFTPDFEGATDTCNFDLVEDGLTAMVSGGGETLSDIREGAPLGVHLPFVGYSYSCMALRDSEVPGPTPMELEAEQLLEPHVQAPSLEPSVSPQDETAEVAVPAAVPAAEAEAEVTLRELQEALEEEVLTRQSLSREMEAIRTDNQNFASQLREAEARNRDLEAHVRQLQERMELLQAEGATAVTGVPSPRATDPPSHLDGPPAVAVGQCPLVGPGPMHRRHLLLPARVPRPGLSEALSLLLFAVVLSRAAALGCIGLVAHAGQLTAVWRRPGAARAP

EphA8(h) = molecular target: T2, EphA8(h) (Homo sapiens, UniProt P29322)
T2 sequence (P29322 28-1005): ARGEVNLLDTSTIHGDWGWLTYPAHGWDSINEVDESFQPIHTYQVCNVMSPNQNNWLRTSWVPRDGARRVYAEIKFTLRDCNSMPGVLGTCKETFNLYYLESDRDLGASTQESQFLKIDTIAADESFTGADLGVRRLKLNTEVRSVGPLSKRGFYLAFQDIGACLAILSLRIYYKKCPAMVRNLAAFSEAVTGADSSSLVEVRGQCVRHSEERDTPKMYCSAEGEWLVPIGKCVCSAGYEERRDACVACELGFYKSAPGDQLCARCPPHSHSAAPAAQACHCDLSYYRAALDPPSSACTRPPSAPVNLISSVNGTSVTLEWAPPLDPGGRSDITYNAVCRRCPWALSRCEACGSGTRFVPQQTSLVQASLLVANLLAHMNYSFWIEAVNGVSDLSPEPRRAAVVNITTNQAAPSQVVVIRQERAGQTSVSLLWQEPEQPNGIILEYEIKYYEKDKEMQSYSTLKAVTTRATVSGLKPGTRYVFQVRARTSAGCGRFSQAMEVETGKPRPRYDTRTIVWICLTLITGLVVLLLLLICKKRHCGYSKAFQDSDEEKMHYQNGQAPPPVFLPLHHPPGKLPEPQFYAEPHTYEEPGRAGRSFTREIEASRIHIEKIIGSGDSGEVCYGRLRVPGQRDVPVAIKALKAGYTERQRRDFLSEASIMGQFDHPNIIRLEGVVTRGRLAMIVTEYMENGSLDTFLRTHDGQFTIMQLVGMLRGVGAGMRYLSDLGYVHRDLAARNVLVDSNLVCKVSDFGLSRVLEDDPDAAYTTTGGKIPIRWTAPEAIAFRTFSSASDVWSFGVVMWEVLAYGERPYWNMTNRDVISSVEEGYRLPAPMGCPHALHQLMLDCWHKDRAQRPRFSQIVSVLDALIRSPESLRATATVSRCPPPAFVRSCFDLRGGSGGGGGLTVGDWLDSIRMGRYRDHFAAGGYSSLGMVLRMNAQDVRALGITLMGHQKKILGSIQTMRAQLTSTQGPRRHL

FGFR3(h) = FGFR3(h) (Homo sapiens, UniProt P22607)
FGFR3(h), sequence (P22607 23-806): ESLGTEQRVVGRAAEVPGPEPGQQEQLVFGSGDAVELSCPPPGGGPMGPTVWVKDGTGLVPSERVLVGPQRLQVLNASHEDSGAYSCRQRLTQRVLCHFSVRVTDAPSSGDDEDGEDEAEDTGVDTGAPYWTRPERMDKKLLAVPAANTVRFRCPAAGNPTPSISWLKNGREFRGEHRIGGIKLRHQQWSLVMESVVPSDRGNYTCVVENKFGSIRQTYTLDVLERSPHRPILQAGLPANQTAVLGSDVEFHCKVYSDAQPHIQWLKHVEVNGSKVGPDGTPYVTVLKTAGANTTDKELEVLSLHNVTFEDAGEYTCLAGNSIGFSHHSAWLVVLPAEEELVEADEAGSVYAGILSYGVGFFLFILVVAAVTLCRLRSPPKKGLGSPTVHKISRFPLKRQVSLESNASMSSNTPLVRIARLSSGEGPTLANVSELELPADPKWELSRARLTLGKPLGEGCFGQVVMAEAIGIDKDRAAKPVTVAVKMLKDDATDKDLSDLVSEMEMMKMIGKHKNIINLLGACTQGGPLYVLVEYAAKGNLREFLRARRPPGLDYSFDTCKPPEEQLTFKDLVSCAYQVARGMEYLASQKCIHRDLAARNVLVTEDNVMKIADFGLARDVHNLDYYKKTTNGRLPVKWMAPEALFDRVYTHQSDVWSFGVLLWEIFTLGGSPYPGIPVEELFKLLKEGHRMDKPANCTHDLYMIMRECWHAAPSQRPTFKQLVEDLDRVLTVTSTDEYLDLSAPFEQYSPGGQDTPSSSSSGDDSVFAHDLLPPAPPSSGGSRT

Flt3(h) = Flt3(h) (Homo sapiens, UniProt P36888)
Met(Y1248C)(h) = Met(Y1248C)(h) (Homo sapiens, UniProt P08581, Y1230C)
Hck(h) = Hck(h) (Homo sapiens, UniProt P08631)
Hck(h), sequence (P08631 whole entry): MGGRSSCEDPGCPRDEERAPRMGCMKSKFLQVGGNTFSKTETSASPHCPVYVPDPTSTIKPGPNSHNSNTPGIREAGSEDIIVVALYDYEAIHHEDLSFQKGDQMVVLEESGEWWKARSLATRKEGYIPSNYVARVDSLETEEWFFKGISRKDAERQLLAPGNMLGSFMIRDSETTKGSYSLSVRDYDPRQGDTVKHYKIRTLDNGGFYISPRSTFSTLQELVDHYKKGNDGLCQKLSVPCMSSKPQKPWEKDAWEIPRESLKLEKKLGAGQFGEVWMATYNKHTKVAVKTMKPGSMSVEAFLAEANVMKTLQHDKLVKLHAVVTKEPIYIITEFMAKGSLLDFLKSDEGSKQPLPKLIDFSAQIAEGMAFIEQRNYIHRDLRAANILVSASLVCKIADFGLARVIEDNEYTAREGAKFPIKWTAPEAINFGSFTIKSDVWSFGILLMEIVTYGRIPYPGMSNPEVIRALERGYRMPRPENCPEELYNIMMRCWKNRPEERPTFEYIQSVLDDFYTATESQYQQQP

MuSK(h) = molecular target: T3, MuSK(h) (Homo sapiens, UniProt O15146)
T3 sequence (O15146 24-869): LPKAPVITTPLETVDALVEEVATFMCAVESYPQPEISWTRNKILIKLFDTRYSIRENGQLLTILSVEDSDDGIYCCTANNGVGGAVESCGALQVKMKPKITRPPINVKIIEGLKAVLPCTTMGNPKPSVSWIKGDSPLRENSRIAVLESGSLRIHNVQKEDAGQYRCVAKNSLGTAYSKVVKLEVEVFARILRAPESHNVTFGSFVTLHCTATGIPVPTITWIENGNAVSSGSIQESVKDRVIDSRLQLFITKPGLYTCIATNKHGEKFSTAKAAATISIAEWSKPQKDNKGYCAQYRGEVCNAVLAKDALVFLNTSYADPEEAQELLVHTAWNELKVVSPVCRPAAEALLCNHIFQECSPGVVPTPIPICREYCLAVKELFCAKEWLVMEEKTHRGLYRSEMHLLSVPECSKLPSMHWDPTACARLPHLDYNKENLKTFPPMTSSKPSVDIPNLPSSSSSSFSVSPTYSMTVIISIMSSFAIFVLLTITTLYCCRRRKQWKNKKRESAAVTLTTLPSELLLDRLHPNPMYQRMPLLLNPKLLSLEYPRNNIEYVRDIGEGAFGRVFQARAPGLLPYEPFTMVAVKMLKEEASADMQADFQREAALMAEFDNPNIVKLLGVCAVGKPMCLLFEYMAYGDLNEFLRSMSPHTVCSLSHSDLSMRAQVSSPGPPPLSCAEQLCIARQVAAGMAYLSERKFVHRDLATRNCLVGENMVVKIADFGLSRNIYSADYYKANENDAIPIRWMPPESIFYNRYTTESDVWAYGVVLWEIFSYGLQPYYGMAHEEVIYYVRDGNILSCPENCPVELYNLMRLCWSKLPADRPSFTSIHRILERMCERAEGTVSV

## YARAAARQARAKALNRQLGVA [MMI-0200]
DMPK(h)
  % activity: 66%
EphA8(h)
  % activity: 133%
FGFR3(h)
  % activity: 208%
Flt3(h)
  % activity: 99%
Met(Y1248C)(h)
  % activity: 141%

## FAKLAARLYRKALARQLGVAA [MMI-0300]
DMPK(h)
  % activity: 59%
EphA8(h)
  % activity: 93%
Flt3(h)
  % activity: 84%
Hck(h)
  % activity: 72%
Met(Y1248C)(h)
  % activity: 84%
MuSK(h)
  % activity: 93%

## KAFAKLAARLYRKALARQLGVAA [MMI-0400]
DMPK(h)
  % activity: 54%
EphA8(h)
  % activity: 146%
FGFR3(h)
  % activity: 0%
Flt3(h)
  % activity: 18%
Hck(h)
  % activity: 72%
Met(Y1248C)(h)
  % activity: 36%
MuSK(h)
  % activity: 93%

## HRRIKAWLKKIKALARQLGVAA [MMI-0500]
DMPK(h)
  % activity: 12%
EphA8(h)
  % activity: 337%
FGFR3(h)
  % activity: 10%
Flt3(h)
  % activity: 17%
Hck(h)
  % activity: 78%
Met(Y1248C)(h)
  % activity: 73%
MuSK(h)
  % activity: 27%
